Measured values reported in US20230120167A1 (AFFILOGIC, published 2023).
Each block holds one binder with its values, some of them ahead of it.

How the values were obtained:
human PD-L1 = target: T1, human PD-L1 (human, UniProt Q9NZQ7 19-238, limits assumed); assay: Surface Plasmon Resonance
T1 construct: also called PD-1 ligand 1; CD274

mouse PD-L1 = target: T2, mouse PD-L1 (mouse, UniProt Q9EP73 19-238, limits assumed); assay: Surface Plasmon Resonance
T2 construct: also called murine PDL1

HSP110 = target: T3, HSP110 (human, UniProt Q92598 1-858, limits assumed)
T3 construct: also called HSPH1; Hsp105
T3 sequence (Q92598 whole entry): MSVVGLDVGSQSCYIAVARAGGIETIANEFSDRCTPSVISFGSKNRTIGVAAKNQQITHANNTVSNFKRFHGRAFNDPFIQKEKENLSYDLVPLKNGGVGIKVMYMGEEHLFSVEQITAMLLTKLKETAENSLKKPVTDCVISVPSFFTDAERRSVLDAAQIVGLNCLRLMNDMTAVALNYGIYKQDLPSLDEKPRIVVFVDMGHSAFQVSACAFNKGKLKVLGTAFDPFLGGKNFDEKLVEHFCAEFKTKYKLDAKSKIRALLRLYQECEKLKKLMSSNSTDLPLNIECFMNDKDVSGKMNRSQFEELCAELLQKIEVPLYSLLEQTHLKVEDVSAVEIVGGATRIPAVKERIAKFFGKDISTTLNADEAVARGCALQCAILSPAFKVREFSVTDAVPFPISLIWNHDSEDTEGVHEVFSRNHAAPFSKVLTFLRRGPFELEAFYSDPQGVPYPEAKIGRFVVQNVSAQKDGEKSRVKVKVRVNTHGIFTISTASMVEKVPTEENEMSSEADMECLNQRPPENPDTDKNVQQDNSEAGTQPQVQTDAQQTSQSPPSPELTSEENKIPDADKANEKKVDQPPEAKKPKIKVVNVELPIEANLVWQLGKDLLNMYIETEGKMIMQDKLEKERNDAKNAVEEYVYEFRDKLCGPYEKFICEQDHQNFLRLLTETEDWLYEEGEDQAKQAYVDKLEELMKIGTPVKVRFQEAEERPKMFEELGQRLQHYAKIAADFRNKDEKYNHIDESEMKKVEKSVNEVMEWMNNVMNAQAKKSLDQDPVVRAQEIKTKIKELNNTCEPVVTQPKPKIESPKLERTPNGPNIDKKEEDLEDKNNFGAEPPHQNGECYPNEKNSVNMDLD

T1 sequence (Q9NZQ7 19-238 limits assumed): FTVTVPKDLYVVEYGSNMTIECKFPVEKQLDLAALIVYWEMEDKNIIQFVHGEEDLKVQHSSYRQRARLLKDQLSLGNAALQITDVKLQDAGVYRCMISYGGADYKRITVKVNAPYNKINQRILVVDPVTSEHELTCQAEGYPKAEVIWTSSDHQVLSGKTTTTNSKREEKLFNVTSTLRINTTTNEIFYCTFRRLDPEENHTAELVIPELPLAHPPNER
T2 sequence (Q9EP73 19-238 limits assumed): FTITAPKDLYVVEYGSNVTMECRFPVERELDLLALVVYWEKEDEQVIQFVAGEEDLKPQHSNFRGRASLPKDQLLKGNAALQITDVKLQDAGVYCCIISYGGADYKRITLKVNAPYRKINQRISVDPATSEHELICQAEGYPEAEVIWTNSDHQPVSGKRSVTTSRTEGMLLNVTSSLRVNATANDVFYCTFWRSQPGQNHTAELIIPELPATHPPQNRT

Kd (human PD-L1): ~15 nM
Kd (mouse PD-L1): ~3.2 nM
B1: B11 (Sac7d variant binding to PD-L1, SEQ ID NO: 21) (designed binder)
chain: MVKVKFVIGGEEKEVDTSKIKTVRRIGKYVLFKYDDNGKTGMGLVSEKDAPKELLDMLARAEREKK
notes: also called NF2; NF-B11

Kd (HSP110): < 1 nM
B2: A-C2 (Sac7d variant binding to HSP110, SEQ ID NO: 27) (designed binder)
chain: MVKVKFMWRGEEKEVDTSKIWDVWRSGKTVYFHYDDNGKMGQGKVHEKDAPKELLDMLARAEREKK
notes: also called NF1; anti-HSP110 variant
